# T1: CD19 (UniProt P15391 20-556, limits assumed)
# T1 sequence (looked up): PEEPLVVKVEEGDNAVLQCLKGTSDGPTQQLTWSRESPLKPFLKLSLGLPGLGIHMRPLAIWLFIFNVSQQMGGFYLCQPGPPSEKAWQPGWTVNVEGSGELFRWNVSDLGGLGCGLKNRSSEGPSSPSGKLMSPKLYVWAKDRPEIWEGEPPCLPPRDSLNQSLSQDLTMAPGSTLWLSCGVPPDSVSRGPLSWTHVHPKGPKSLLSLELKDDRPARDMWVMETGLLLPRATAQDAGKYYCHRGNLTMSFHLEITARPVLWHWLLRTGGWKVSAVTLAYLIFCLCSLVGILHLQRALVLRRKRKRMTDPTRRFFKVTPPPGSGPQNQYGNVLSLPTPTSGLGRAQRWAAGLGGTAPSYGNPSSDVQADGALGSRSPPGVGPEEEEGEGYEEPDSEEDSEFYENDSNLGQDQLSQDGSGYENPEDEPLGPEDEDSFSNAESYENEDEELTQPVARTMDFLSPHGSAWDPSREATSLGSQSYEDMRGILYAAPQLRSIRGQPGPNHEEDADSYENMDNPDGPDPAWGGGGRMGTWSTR
# Molecular target: T1, CD19
# Assay: cell-based or functional assay
binder,measurement,value
"huB4-DGN462 (antibody, V domains shown) VH: QVQLVQPGAEVVKPGASVKLSCKTSGYTFTSNWMHWVKQAPGQGLEWIGEIDPSDSYTNYNQNFQGKAKLTVDKSTSTAYMEVSSLRSDDTAVYYCARGSNPYYYAMDYWGQGTSVTVSS VL: EIVLTQSPAIMSASPGERVTMTCSASSGVNYMHWYQQKPGTSPRRWIYDTSKLASGVPARFSGSGSGTDYSLTISSMEPEDAATYYCHQRGSYTFGGGTKLEIKR","median IC50 of cytotoxic activity (MTT assay, 72 h) in B cell lymphoma cell lines",0.1 nM
same,"median IC50 of cytotoxic activity (MTT assay, 72 h) in eight T cell-derived lymphomas with lower CD19 expression",1.75 nM
